Source: US20030126647A1 (published 2003)

T1: full-length FIS2 polypeptide (Arabidopsis thaliana, UniProt P0DKJ7 1-813, limits assumed)
T1 construct: The full-length FIS2 cDNA was cloned into pGBT9 and pGAD424; the vector-encoded fusion domain is not included
T1 sequence: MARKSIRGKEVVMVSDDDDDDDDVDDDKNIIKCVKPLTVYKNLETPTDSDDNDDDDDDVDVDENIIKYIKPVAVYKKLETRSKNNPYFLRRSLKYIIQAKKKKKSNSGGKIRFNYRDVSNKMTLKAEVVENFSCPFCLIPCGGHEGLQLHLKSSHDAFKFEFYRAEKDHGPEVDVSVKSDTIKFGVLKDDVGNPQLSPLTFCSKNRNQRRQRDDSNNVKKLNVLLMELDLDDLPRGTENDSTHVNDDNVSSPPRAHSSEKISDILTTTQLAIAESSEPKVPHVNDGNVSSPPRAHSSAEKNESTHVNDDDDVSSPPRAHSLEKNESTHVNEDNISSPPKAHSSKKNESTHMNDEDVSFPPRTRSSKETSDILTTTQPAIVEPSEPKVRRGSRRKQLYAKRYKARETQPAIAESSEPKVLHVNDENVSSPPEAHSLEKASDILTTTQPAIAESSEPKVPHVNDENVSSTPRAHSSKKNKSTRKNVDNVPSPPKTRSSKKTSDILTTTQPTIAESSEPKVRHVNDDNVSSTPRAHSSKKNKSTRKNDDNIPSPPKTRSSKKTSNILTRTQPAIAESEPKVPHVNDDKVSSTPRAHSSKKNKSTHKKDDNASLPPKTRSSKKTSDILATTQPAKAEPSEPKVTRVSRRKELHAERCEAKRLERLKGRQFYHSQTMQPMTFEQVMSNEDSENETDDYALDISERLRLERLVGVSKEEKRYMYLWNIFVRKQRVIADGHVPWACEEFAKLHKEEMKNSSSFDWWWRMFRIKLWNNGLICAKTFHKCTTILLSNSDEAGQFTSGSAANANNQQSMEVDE

B1: full-length FIS3 polypeptide (other)
chain: MSKITLGNESIVGSLTPSNKKSYKVTNRIQEGKKPLYAVVFNFLDARFFDVFVTAGGNRITLYNCLGDGAISALQSYADEDKEESFYTVSWACGVNGNPYVAAGGVKGIIRVIDVNSETIHKSLVGHGDSVNEIRTQPLKPQLVITASKDESVRLWNVETGICILIFAGAGGHRYEVLSVDFHPSDIYRFASCGMDTTIKIWSMKEFWTYVEKSFTWTDDPSKFPTKFVQFPVFTASIHTNYVDCNRWFGDFILSKSVDNEILLWEPQLKENSPGEGASDVLLRYPVPMCDIWFIKFSCDLHLSSVAIGNQEGKVYVWDLKSCPPVLITKLSHNQSKSVIRQTAMSVDGSTILACCEDGTIWRWDVITK
notes: The full-length FIS3 cDNA was cloned into pGBT9 and pGAD424; the vector-encoded fusion domain is not included; also called FIE
B2: FIS1 deletion mutant Bcl (320 amino acid polypeptide comprising the A and C5 regions only) (other)
chain: MEKENHEDDGEGLPPELNQIKEQIEKERFLHIKRKFELRYIPSVATHASHHQSFDLNQPAAEDDNGGDNKSLLSRMQNPLRHFSASSDYNSYEDQGYVLDEDQDYALEEDVPLFLDEDVPLLPSVKLPIVEKLPRSITWVFTKSSQLMAESDSVIGKRQIYYLNGEALELSSEEDEEDEEEDEEEIKKEKCEFSEDVDRFIWTVGQDYGLDDLVVRRALAKYLEVDVSDILERYNELKLKNDGTAGEASDLTSKTITTAFQDFADRRHCRRCMIFDCHMHEKYEPESRSSEDKSSLFEDEDRQPCSEHCYLKVRSVTEAD
notes: Expressed as a yeast two-hybrid vector fusion (pGBT9 / pGAD424); the fusion domain is not included; also called delta-Bcl; truncated FIS1 having the C-terminal 369 amino acids containing the N, CXC and SET domains deleted
B3: full-length FIS1 polypeptide (other)
chain: MEKENHEDDGEGLPPELNQIKEQIEKERFLHIKRKFELRYIPSVATHASHHQSFDLNQPAAEDDNGGDNKSLLSRMQNPLRHFSASSDYNSYEDQGYVLDEDQDYALEEDVPLFLDEDVPLLPSVKLPIVEKLPRSITWVFTKSSQLMAESDSVIGKRQIYYLNGEALELSSEEDEEDEEEDEEEIKKEKCEFSEDVDRFIWTVGQDYGLDDLVVRRALAKYLEVDVSDILERYNELKLKNDGTAGEASDLTSKTITTAFQDFADRRHCRRCMIFDCHMHEKYEPESRSSEDKSSLFEDEDRQPCSEHCYLKVRSVTEADHVMDNDNSISNKIVVSDPNNTMWTPVEKDLYLKGIEIFGRNSCDVALNILRGLKTCLEIYNYMREQDQCTMSLDLNKTTQRHNQVTKKVSRKSSRSVRKKSRLRKYARYPPALKKTTSGEAKFYKHYTPCTCKSKCGQQCPCLTHENCCEKYCGCSKDCNNRFGGCNCAIGQCTNRQCPCFAANRECDPDLCRSCPLSCGDGTLGETPVQIQCKNMQFLLQTNKKILIGKSDVHGWGAFTWDSLKKNEYLGEYTGELITHDEANERGRIEDRIGSSYLFTLNDQLEIDARRKGNEFKFLNHSARPNCYAKLMIVRGDQRIGLFAERAIEEGEELFFDYCYGPEHADWSRGREPRKTGASKRSKEARPAR
notes: Expressed in yeast from the two-hybrid vectors pGBT9 and pGAD424, so it was a fusion with the vector-encoded domain; also called MEDEA/FIS1; MEA

Key:
[1] = molecular target: B3; test: yeast two-hybrid
Source text: (§1) In particular, the full-length FIS1 cDNA sequence, encoding a 689 amino acid polypeptide comprising the A, C5, N, CXC and SET domains, and the deletion mutants designated: ΔBgl, encoding a 513 amino acid polypeptide and lacking the C-terminal SET domain-encoding region; ΔBcl, encoding a 320 amino acid polypeptide and lacking the C-terminal N, CXC and SET domain-encoding regions; ΔPst, encoding a 62 amino acid polypeptide and lacking the C-terminal portion of FIS1 comprising the five domain-encoding regions; and Δ160, lacking 160 bp at the 5′-end of the FIS1 cDNA, were constructed (FIG. 27). The full-length FIS2 and FIS3 cDNAs were also used. Control constructs, employing the empty vectors pGBT9 and pGAD424, or alternatively the EzA1 cDNA, were also used. Each cDNA was cloned into each vector and yeast were transformed with vectors expressing different FIS polypeptides, in the presence of adenine selection and β-Galactosidase activation, to select for cells expressing from both constructs.

[2] = molecular target: T1, full-length FIS2 polypeptide; test: yeast two-hybrid (pGBT9 / pGAD424, adenine selection and beta-galactosidase)
Source text: as §1

[3] = molecular target: B1; test: yeast two-hybrid
Source text: as §1

yeast two-hybrid = molecular target: the molecule itself; test: yeast two-hybrid
Source text: as §1

binding result [1]	binding result [2]	binding result [3]	Binder	binding result (yeast two-hybrid)
binds	no binding	–	B1	–
binds	–	binds	B2	–
–	–	–	B3	binds
